Experimental data taken from patent US10689452 (UNIVERSIT T STUTTGART, dated 2020).
Residue numbers refer to the chain shown, from its start.

T1: human TNFR1-Fc fusion protein (human, UniProt P19438 29-211)
T1 construct: range 29-211; Made in stably transfected HEK293 cells; coated on ELISA plates or immobilised on QCM chips; also called huTNFR1-Fc; human TNFR-Fc; not shown: Fc part from vector pSecTagL1-Fc
T1 sequence (looked up): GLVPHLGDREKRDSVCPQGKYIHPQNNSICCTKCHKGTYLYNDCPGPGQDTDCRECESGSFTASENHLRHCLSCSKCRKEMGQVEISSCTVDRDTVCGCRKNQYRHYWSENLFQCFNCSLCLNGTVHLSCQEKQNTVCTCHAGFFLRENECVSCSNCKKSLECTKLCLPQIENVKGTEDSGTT

T2: human TNFR1 on cells (HT1080, HeLa, Kym-1) (human, UniProt P19438 30-455)
T2 sequence (looked up): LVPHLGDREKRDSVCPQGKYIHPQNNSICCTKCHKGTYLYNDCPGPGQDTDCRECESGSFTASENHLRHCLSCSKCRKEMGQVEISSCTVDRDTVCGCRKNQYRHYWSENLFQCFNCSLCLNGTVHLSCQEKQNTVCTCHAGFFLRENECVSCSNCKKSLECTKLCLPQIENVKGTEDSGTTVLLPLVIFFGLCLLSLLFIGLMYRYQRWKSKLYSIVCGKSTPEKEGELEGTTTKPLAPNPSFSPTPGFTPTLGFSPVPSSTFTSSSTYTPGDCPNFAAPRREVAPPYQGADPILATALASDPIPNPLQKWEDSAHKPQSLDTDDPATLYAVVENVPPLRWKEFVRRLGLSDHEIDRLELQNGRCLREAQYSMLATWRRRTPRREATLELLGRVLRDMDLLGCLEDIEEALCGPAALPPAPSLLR

T3: human TNFR2-Fc fusion protein (human, UniProt P20333 23-257)
T3 construct: whole entry named; also called huTNFR2
T3 sequence (looked up): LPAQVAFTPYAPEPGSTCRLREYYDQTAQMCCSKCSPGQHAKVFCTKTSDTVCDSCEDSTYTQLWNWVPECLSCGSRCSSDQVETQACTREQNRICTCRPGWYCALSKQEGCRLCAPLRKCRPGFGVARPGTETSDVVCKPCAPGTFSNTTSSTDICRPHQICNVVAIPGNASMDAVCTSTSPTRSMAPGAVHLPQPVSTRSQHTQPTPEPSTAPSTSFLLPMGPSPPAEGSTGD

T4: mouse TNFR1-Fc fusion protein (mouse, UniProt P25118 30-212)
T4 construct: range 30-212; also called moR1; not shown: Fc part from vector pSecTagL1-Fc
T4 sequence (looked up): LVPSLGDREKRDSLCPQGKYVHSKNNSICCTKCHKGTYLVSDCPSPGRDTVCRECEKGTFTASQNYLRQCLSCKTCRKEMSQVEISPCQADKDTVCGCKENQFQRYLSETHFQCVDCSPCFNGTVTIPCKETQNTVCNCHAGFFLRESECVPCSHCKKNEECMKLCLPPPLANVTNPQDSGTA

T5: mouse TNFR2-Fc fusion protein (mouse, UniProt P25119 23-258)
T5 construct: range 23-258; not shown: Fc part from vector pSecTagL1-Fc
T5 sequence (looked up): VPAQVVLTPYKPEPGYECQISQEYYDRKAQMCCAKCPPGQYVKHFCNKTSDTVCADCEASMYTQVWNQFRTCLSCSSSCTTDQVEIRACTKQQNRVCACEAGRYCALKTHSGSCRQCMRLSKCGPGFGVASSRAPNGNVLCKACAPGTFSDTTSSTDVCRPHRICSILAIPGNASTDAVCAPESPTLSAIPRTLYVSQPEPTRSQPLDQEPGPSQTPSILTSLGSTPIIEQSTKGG

B1: FabATROSAB (Fab, V domains shown)
VH: QVQLVQSGAEVKKPGSSVKVSCKASGYTFTDFYINWVRQAPGQGLEWIGEIYPYSGHAYYNEKFKARVTITADKSTSTAYMELSSLRSEDTAVYYCARWDFLDYWGQGTTVTVSS
VL: DIVMTQSPLSLPVTPGEPASISCRSSQSLLHSNGNTYLHWYLQKPGQSPQLLIYTVSNRFSGVPDRFSGSGSGTDFTLKISRVEAEDVGVYYCSQSTHVPYTFGGGTKVEIKR
notes: Fab of ATROSAB; also called Fab fragment of ATROSAB; ATROSAB Fab
B2: IgG13.7 (antibody, V domains shown)
VH: B1 VH with Q1H, Y52V, Y54S, S55Q, H57E, Y59K, E62D
VL: DVQMTQSPSSLSASVGDRVTITCRSSQSLLHSNGNTYLHWYQQKPGKAPKLLIYTVSNRFSGVPSRFSGSGSGTDFTLTISSLQPEDFATYYCSQSTHVPYTFGGGTKVEIK
notes: Made transiently in HEK293T cells; also called IgG-FRK13.7
B3: Fab13.7 (Fab, V domains shown)
VH: B1 VH with Q1H, Y52V, Y54S, S55Q, H57E, Y59K, E62D
VL: DVQMTQSPSSLSASVGDRVTITCRSSQSLLHSNGNTYLHWYQQKPGKAPKLLIYTVSNRFSGVPSRFSGSGSGTDFTLTISSLQPEDFATYYCSQSTHVPYTFGGGTKVEIKR
notes: also called Fab-FRK13.7; Fab3.7

Columns and labels:
[1] = target: T1, human TNFR1-Fc fusion protein; assay: ELISA, human TNFR1-Fc
[2] = target: T2, human TNFR1 on cells (HT1080, HeLa, …); assay: cell-based or functional assay
[3] = target: T1, human TNFR1-Fc fusion protein; assay: QCM, human TNFR1-Fc, moderate receptor density (86 Hz), KD1
Protocol: (§1) Real-time binding dynamics in protein-protein interactions were determined by quartz crystal microbalance measurements (A-100 C-Fast or Cell-200 C-Fast, Attana, Stockholm, Sweden). One of the binding partners (ligand, e.g. TNFR1-Fc) was chemically immobilized on a carboxyl sensor chip according to the manufacturer's protocol at different densities (nearly 200 Hz in the case of saturating conditions to confirm previously published results and 50-100 Hz, in particular at about 50 Hz, to establish conditions of lower receptor density, better resembling the situation on the cellular surface). Binding experiments were performed with samples (analyte) diluted in PBST (PBS, 0.1% Tween 20) at pH 7.4 with a flow rate of 25 µl/min at 37° C. The chip was regenerated with 25 µl 5 mM NaOH or 20 mM glycine, pH 2.0. Every third measurement, an injection of running buffer was measured which was subtracted from the binding curve. Data were collected using the software provided by Attana for the particular device and analyzed by Attaché Office Evaluation software (Attana, Stockholm, Sweden) and TraceDrawe (ridgview instruments, Vange, Sweden).

[4] = target: T1, human TNFR1-Fc fusion protein; assay: QCM, human TNFR1-Fc, moderate receptor density (86 Hz), kon1
Protocol: as §1

[5] = target: T1, human TNFR1-Fc fusion protein; assay: QCM, human TNFR1-Fc, moderate receptor density (86 Hz), koff1
Protocol: as §1

[6] = target: T1, human TNFR1-Fc fusion protein; assay: ELISA on coated huTNFR1-Fc, antibody titrated, signal as Binding [%]
Protocol: FIG. 13. […] Increasing concentrations were tested for their binding to huTNFR1-Fc in ELISA (n=3, mean±SD).
(§2) Microtiter plates were coated with 100 µl of the indicated protein (1 µg/ml in PBS, see Table 3.3) and incubated at 4° C. over night. The residual binding sites were blocked with 2% MPBS (skim milk in PBS, 200 µl per well) at room temperature for 2 hours and subsequently washed twice with PBS. 100 µl of the samples diluted in 2% MPBS were incubated at room temperature for 1 hour prior to the last incubation step with 100 µl of the HRP conjugated detection antibodies in 2% MPBS. In the case of competition experiments, both analyzed protein samples were prepared individually (either titrated or diluted to a single concentration) and mixed before they were applied to the plate. Bound protein was detected with 100 µl TMB substrate solution, the HRP-reaction was stopped by the addition of 50 µl 1 M H2SO4 and the absorption at the wavelength of 450 nm was measured using the Infinite microtiter plate reader (TECAN, Maennedorf, Switzerland). Between each incubation step and in advance of the detection, the plates were washed three times with PBST and twice with PBS.

[7] = target: T3, human TNFR2-Fc fusion protein; assay: ELISA on coated receptor-Fc fusion proteins, one antibody concentration (not given on the sheet)
Protocol: (§3) FIG. 12. Species selectivity of scFv13.7 derivatives. […] Presented are mean and SD of two individual experiments.
as §2

[8] = target: T4, mouse TNFR1-Fc fusion protein; assay: as above
Protocol: as §3, §2

[9] = target: T5, mouse TNFR2-Fc fusion protein; assay: as above
Protocol: as §3, §2

[10] = target: T1, human TNFR1-Fc fusion protein; assay: QCM
[11] = target: T1, human TNFR1-Fc fusion protein; assay: QCM, human TNFR1-Fc, high receptor density (184 Hz), OneToOne analysis, KD2
Protocol: as §1, with “curve.” for “curve. Data were collected using the software provided by Attana for the particular device and analyzed by Attaché Office Evaluation software (Attana, Stockholm, Sweden) and TraceDrawe (ridgview instruments, Vange, Sweden).”

[12] = target: T1, human TNFR1-Fc fusion protein; assay: QCM, human TNFR1-Fc, high receptor density (184 Hz), OneToOne analysis, kon2
Protocol: as §1, with “curve.” for “curve. Data were collected using the software provided by Attana for the particular device and analyzed by Attaché Office Evaluation software (Attana, Stockholm, Sweden) and TraceDrawe (ridgview instruments, Vange, Sweden).”

[13] = target: T1, human TNFR1-Fc fusion protein; assay: QCM, human TNFR1-Fc, high receptor density (184 Hz), OneToOne analysis, koff2
Protocol: as §1, with “curve.” for “curve. Data were collected using the software provided by Attana for the particular device and analyzed by Attaché Office Evaluation software (Attana, Stockholm, Sweden) and TraceDrawe (ridgview instruments, Vange, Sweden).”

[14] = target: T2, human TNFR1 on cells (HT1080, HeLa, …); assay: cell-based or functional assay; remark: listed apart in the source
[15] = target: T1, human TNFR1-Fc fusion protein; assay: QCM, moderate receptor density (86 Hz)
Protocol: as §1

[16] = target: T1, human TNFR1-Fc fusion protein; assay: ELISA on coated human TNFR1-Fc, reference curve next to Fab13.7PEG
Protocol: as §2

[17] = target: T1, human TNFR1-Fc fusion protein; assay: ELISA on coated human TNFR1-Fc, reference curve next to Fv13.7-Fckih0DS
Protocol: as §2

| Binder | IC50, Cytotox (nM); inhibition of Kym-1 cell death by 0.01 nM TNF [2] | IC50, IL-6 (nM); inhibition of the response of HeLa cells to 0.1 nM TNF [2] | IC50, IL-8 (nM); inhibition of the response of HT1080 cells to 0.1 nM TNF [2] | IL-6 release (pg/ml), HeLa cells [2] | IL-8 release (pg/ml), HT1080 cells [2] | Kd [3] | kon [4] | koff [5] | EC50 [1] | further results |
| --- | --- | --- | --- | --- | --- | --- | --- | --- | --- | --- |
| B1 | 37 nM | 145 nM | 151 nM | 179 pg/mL | 128 pg/mL | 30 nM | 501000 M⁻¹ s⁻¹ | 0.015 s⁻¹ |  | fold weaker binding (higher EC50) compared with Fab13.7 [1]: 8.7 fold; EC50 (read off the curve) [6]: ~10 nM; binding result [7]: no binding; binding result [8]: no binding; binding result [9]: no binding |
| B2 |  |  |  | 1450 pg/mL | 4230 pg/mL |  |  |  | 0.76 nM | fold improvement of KD compared with ATROSAB (bivalent binding) [10]: 3.5 fold; Kd [11]: 0.11 nM; kon [12]: 535000 M⁻¹ s⁻¹; koff [13]: 5.92e-05 s⁻¹ |
| B3 | 4.7 nM | 31 nM | 19 nM | 101 pg/mL | 138 pg/mL | 1.6 nM | 470000 M⁻¹ s⁻¹ | 0.000732 s⁻¹ | 1.4 nM | IC50 (read off the curve), inhibition of the interleukin release induced by 0.1 nM TNF (axis: IL-6 release [%]) [14]: ~20 nM; fold stronger affinity than FabATR [15]: 19 fold; EC50 (read off the curve) [16]: ~2 nM; EC50 (read off the curve) [17]: ~0.6 nM |
